The data set concerns the target T1, His6-RacR (Escherichia coli JM83 (Rac prophage)) (UniProt P76062).
T1 sequence: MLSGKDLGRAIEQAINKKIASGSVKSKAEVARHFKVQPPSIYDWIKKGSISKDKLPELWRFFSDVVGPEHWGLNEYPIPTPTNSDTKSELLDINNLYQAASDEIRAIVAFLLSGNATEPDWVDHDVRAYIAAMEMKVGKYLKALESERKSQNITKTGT
The data set is described as follows: EMSA. To be noted: EMSA: 10 mM Tris-HCl pH 8.0, 1 mM EDTA, 0.1 M NaCl, 0.1 mM DTT, 5% glycerol, 10 ug/mL BSA, 50 ug/mL poly(dI-C), 28 C 40 min; 6% PAGE in 0.5x TBE.

Here are results for one sequence from publication PMC6715736.

In the case of “GGTTCATCTCGGCTCCTGCTGCGGCGGTTGTCTTCGCGGATTTTGAAATAGAGATTTGTCAGATACGTCATTACGGCAATGATGATACCCACCAGCACGCCGATAGCGTTCCACTGCTCGGGGCTGTAGGCATTCAACATGCCGTTTAGGATGCTCCCGGCTGAAGCGCCATAGGCAGCACCAGTGGTTAGTTTGTCCATGCGATACATACTCTCACCTCGCTTTGTGCGAGTGCTGTTGCT (double strand) [lysN* probe]”, the binding entry is on record as “binds”.
